{"source": "paper PMC11228396", "target": "Stabilized soluble Omicron BA.1 spike (SARS-CoV-2)", "assay": "cryo-EM structure", "data": [{"substance": "Stabilized soluble Omicron BA.1 spike (domain or fragment)", "values": [{"measurement": "stoichiometry N", "value": 3}]}]}
